Assay results reported in patent publication US12454527B2, “Conjugate monomethyl auristatin E to obtain a composition for treatment of prostate cancer” (priority 2019, dated 2025).
Like-named read-outs stand apart in the source and are kept apart here. Starred links: 1 amine or outer side, 2 acyl side, 3 side chain; linkers in the order of their positions; H or OH if unused. Non-standard residues stand in square brackets, D forms with d. Residues, ends and D or L forms follow the SMILES beside them. ξ: configuration not given here. *: point of attachment. GluureaLys(ε-3-ClBenzyl) = O=C(O)CC[C@H](NC(=O)N[C@@H](CCCCN(Cc1cccc(Cl)c1)*)C(=O)O)C(=O)O; Dolaproine = CO[C@@H]([C@@H]1CCCN1)[C@@H](C)C(=O)O; Dil = CC[C@H](C)[C@H](NC)[C@@H](CC(=O)O)OC; X1 = O=C(CCCc1cn(CCCN[*:1])nn1)[*:2]; PABC = O=C(OCc1ccc(N[*:1])cc1)[*:2]; X2 = C[C@@H](N*)[C@@H](O)c1ccccc1; Cit = NC(=O)NCCC[C@H](N)C(=O)O; Suc = O=C(CCC(=O)[*:2])[*:1]; NMeV = CN[C@H](C(=O)O)C(C)C; ξV = CC(C)C(N)C(=O)O; Ahx = NCCCCCC(=O)O

Columns and labels:
[1] = Body weight of mice in lymphoid leukosis P388 model; assay type: in vivo
Method: Lymphoid Leukosis P388 (male mice BDF1)—observation was held for 30 days since the first product administration (the product administration was started 24 hours after revaccination) and it was administered 3 times intraperitoneally in a day.
• 1. Group 1—tumor growth control (TGC) • 2. Group 2—placebo (diluent) • 3. Group 3—intraperitoneal Conjugate (I) administration in a dose of 0.5 mg/kg 3 times; • 4. Group 4—intraperitoneal Conjugate (I) administration in a dose of 1.0 mg/kg 3 times:
Experimental animals of control group (TGC) were administered with 0.9% saline, the placebo group was injected with the diluent (DMSO+Haemodes) of similar volume. The antineoplastic activity was determined according to mice lifespan.

[2] = Pharmacokinetics in plasma of rabbits after a single injection; assay type: in vivo; details: male, Soviet Chinchilla, rabbit, plasma; for level at 0.5 h: 0.50 hour; for level at 1.5 h: 1.50 hour
From the text: The pharmacokinetics study for the Conjugate (I) product in plasma of rabbits and rats after a single injection.
The leporids and rodents are the standard targets for preclinical studies of potential drug products as well as determining the pharmacokinetic parameters. The rabbits and rats are recommended as test systems to study pharmacokinetic properties of pharmaceutical products by the regulatory documents (FIG. 7, FIG. 8).
[…] The pharmacokinetic data, determined from this number of test animals, are sufficient to obtain the primary quantitative characteristics of test product distribution and elimination and the calculation of descriptive statistics parameters.
• 1. Conjugate (1) • 2. Solubilizer Pluronic F127—in the amount, five-fold greater than the conjugate amount by weight. • 3, Diluent—Haemodes infusion solution. • Dimethyl sulfoxide—in the amount of 5% of the prepared volume. • Rabbit experiment (see Tables 5, 6), • Rat experiment (see Tables 7, 8).

[3] = rabbits N=6, read-out: Concentration in blood plasma, Geometr. mean
[4] = rabbits N=6, read-out: Concentration in blood plasma, Mean value
[5] = rabbits N=6, read-out: Concentration in blood plasma, Median

In the case of `CC[C@H](C)[C@@H]([C@@H](CC(=O)N1CCC[C@H]1[C@H](OC)[C@@H](C)C(=O)N[C@H](C)[C@@H](O)c1ccccc1)OC)N(C)C(=O)[C@@H](NC(=O)[C@H](C(C)C)N(C)C(=O)OCc1ccc(NC(=O)[C@H](CCCNC(N)=O)NC(=O)C(NC(=O)CCCc2cn(CCCNC(=O)[C@H](Cc3ccc(O)cc3)NC(=O)[C@H](Cc3ccccc3)NC(=O)CCC(=O)NCCCCCC(=O)N(CCCC[C@H](NC(=O)N[C@@H](CCC(=O)O)C(=O)O)C(=O)O)Cc3cccc(Cl)c3)nn2)C(C)C)cc1)C(C)C` (some centres unmarked) [Conjugate (I)] ({GluureaLys(ε-3-ClBenzyl)-Ahx-Suc}-FY[X1][ξV][Cit][PABC][NMeV]V[Dil][Dolaproine]-X2), the “Body weight of mice” value ([1]; 0.5 mg/kg, day 0, in g (unit assumed)) is reported as 19.9 ± 0.36, the “Body weight of mice” value ([1]; 0.5 mg/kg, day 2, in g (unit assumed)) is reported as 19.2 ± 0.28 and the “Body weight of mice” value ([1]; 0.5 mg/kg, day 4, in g (unit assumed)) is reported as 19.2 ± 0.32. For the same compound, the “Body weight of mice” value ([1]; 1.0 mg/kg, day 0, in g (unit assumed)) was 19.7 ± 0.36, the “Body weight of mice” value ([1]; 1.0 mg/kg, day 2, in g (unit assumed)) was 19.7 ± 0.48 and the “Body weight of mice” value ([1]; 1.0 mg/kg, day 4, in g (unit assumed)) was 19.7 ± 0.42. For the same compound, the AUC0-t ([2]; intravenous, 0.81 mg/kg, rabbits N=6, read-out: AUC0-t, Geometr. mean) was 30200 ng·h/mL, the AUC0-t ([2]; intravenous, 0.81 mg/kg, rabbits N=6, read-out: AUC0-t, Mean value) was 30700 ng·h/mL and the AUC0-t ([2]; intravenous, 0.81 mg/kg, rabbits N=6, read-out: AUC0-t, Median) was 30200 ng·h/mL. It also gave an AUC(0-inf) ([2]; intravenous, 0.81 mg/kg, rabbits N=6, read-out: AUC0-∞, Geometr. mean) of 34700 ng·h/mL, an AUC(0-inf) ([2]; intravenous, 0.81 mg/kg, rabbits N=6, read-out: AUC0-∞, Mean value) of 35100 ng·h/mL and an AUC(0-inf) ([2]; intravenous, 0.81 mg/kg, rabbits N=6, read-out: AUC0-∞, Median) of 36100 ng·h/mL. The MRT last ([2]; intravenous, 0.81 mg/kg, rabbits N=6, read-out: MRT0-t, Geometr. mean) was 3.43 h, the MRT last ([2]; intravenous, 0.81 mg/kg, rabbits N=6, read-out: MRT0-t, Mean value) was 3.44 h and the MRT last ([2]; intravenous, 0.81 mg/kg, rabbits N=6, read-out: MRT0-t, Median) was 3.38 h. The half-life ([2]; intravenous, 0.81 mg/kg, rabbits N=6, read-out: T1/2, Geometr. mean (converted)) was 4.33 h, the half-life ([2]; intravenous, 0.81 mg/kg, rabbits N=6, read-out: T1/2, Mean value (converted)) was 4.58 h and the half-life ([2]; intravenous, 0.81 mg/kg, rabbits N=6, read-out: T1/2, Median (converted)) was 4.59 h. It also gave a Vd ([2]; intravenous, 0.81 mg/kg, rabbits N=6, read-out: Vd, Geometr. mean) of 0.146 L/kg, a Vd ([2]; intravenous, 0.81 mg/kg, rabbits N=6, read-out: Vd, Mean value) of 0.158 L/kg and a Vd ([2]; intravenous, 0.81 mg/kg, rabbits N=6, read-out: Vd, Median) of 0.144 L/kg. For the same compound, the AUC0-t ([2]; intravenous, 0.81 mg/kg, rabbits, individual animals, read-out: AUC0-t) was 31400 ng·h/mL, the AUC(0-inf) ([2]; intravenous, 0.81 mg/kg, rabbits, individual animals, read-out: AUC0-∞) was 35300 ng·h/mL and the C0 ([2]; intravenous, 0.81 mg/kg, rabbits, individual animals, read-out: C0) was 10700 ng/mL. It also gave an MRT last ([2]; intravenous, 0.81 mg/kg, rabbits, individual animals, read-out: MRT0-t) of 3.12 h, a level at 0.08 h [2, 3] of 10300 ng/mL and a level at 0.08 h [2, 4] of 10500 ng/mL. It also gave a level at 0.08 h [2, 5] of 9600 ng/mL, a level at 0.25 h [2, 3] of 9410 ng/mL and a level at 0.25 h [2, 4] of 9670 ng/mL. The level at 0.25 h [2, 5] was 9840 ng/mL, the level at 0.5 h [2, 3] was 7410 ng/mL and the level at 0.5 h [2, 4] was 7580 ng/mL. The level at 0.5 h [2, 5] was 7100 ng/mL, the level at 1 h [2, 3] was 6040 ng/mL and the level at 1 h [2, 4] was 6160 ng/mL. It also gave a level at 1 h [2, 5] of 5890 ng/mL, a level at 1.5 h [2, 4] of 5120 ng/mL and a level at 1.5 h [2, 5] of 4970 ng/mL. The level at 2 h [2, 3] was 4570 ng/mL, the level at 2 h [2, 4] was 4630 ng/mL and the level at 2 h [2, 5] was 4510 ng/mL. It also gave a level at 3 h [2, 3] of 3440 ng/mL, a level at 3 h [2, 4] of 3520 ng/mL and a level at 3 h [2, 5] of 3650 ng/mL. It also gave a level at 4 h [2, 3] of 2430 ng/mL and a level at 4 h [2, 4] of 2520 ng/mL.
